Laboratory results published in paper PMC6555819, “Comprehensive study of nuclear receptor DNA binding provides a revised framework for understanding receptor specificity”.

B1: NRC3_wobSeed29_DR1_T20C_o1 (dsDNA)
DNA 1: GCGCTTACGGGTCAAAGGTCATAGCATGAATAGAATGCGATTGACAGCGTAGAATGAAGG
DNA 2: CCTTCATTCTACGCTGTCAATCGCATTCTATTCATGCTATGACCTTTGACCCGTAAGCGC
B2: NRC3_wobSeed45_DR1_A20C_o1 (dsDNA)
DNA 1: GCTGTCAAAGTTCAAAGGTCACGTAAGTATCCACACGCGATTGACAGCGTAGAATGAAGG
DNA 2: CCTTCATTCTACGCTGTCAATCGCGTGTGGATACTTACGTGACCTTTGAACTTTGACAGC
B3: NRC3_wobSeed37_DR1_G22T_o1 (dsDNA)
DNA 1: GCCGTCCAAGGTCAAAGGTCATTGAAGAGATGACGGGCGATTGACAGCGTAGAATGAAGG
DNA 2: CCTTCATTCTACGCTGTCAATCGCCCGTCATCTCTTCAATGACCTTTGACCTTGGACGGC
B4: NRC3_random_hg19_204_o1 (dsDNA)
DNA 1: GCGCCTGCATCTCCACATCCATGGAGTCCTGCTGAGGCGATTGACAGCGTAGAATGAAGG
DNA 2: CCTTCATTCTACGCTGTCAATCGCCTCAGCAGGACTCCATGGATGTGGAGATGCAGGCGC
B5: NRC3_random_hg19_355_o1 (dsDNA)
DNA 1: GCTCACCGTGTTAGCCAGGATGGTCTCAATCTCCTGGCGATTGACAGCGTAGAATGAAGG
DNA 2: CCTTCATTCTACGCTGTCAATCGCCAGGAGATTGAGACCATCCTGGCTAACACGGTGAGC
B6: NRC3_wobSeed27_DR1_A12T_o1 (dsDNA)
DNA 1: GCACTCGGAGGTCAAAGGTCAGAGCTACGCCAGTGAGCGATTGACAGCGTAGAATGAAGG
DNA 2: CCTTCATTCTACGCTGTCAATCGCTCACTGGCGTAGCTCTGACCTTTGACCTCCGAGTGC
B7: NRC3_wobSeed42_DR1_C19T_o1 (dsDNA)
DNA 1: GCTATACAGGGTCAAAGGTCAGAGTACGAATGTCGAGCGATTGACAGCGTAGAATGAAGG
DNA 2: CCTTCATTCTACGCTGTCAATCGCTCGACATTCGTACTCTGACCTTTGACCCTGTATAGC
B8: NRC3_wobSeed74_DR3_T9A_o1 (dsDNA)
DNA 1: GCTCTAGTAGGTCACGGAGGTCACACACGACGGGTAGCGATTGACAGCGTAGAATGAAGG
DNA 2: CCTTCATTCTACGCTGTCAATCGCTACCCGTCGTGTGTGACCTCCGTGACCTACTAGAGC
B9: NRC3_random_hg19_478_o1 (dsDNA)
DNA 1: GCATCAGCCATTTGGTATGCAAGTAGATTAGAAGCCGCGATTGACAGCGTAGAATGAAGG
DNA 2: CCTTCATTCTACGCTGTCAATCGCGGCTTCTAATCTACTTGCATACCAAATGGCTGATGC

Target: RXRa (Homo sapiens, UniProt P19793)
Assay: no ligand; PBM; 180 nM; PBS pH 7.4, 2% milk, 0.02% Triton X-100, 1 mM DTT, BSA, 0.4 mg/ml salmon testes DNA
Conditions: tags: His cleaved; chain copies: 2; label: surface-attached array probe

RXRa, sequence (P19793 whole entry): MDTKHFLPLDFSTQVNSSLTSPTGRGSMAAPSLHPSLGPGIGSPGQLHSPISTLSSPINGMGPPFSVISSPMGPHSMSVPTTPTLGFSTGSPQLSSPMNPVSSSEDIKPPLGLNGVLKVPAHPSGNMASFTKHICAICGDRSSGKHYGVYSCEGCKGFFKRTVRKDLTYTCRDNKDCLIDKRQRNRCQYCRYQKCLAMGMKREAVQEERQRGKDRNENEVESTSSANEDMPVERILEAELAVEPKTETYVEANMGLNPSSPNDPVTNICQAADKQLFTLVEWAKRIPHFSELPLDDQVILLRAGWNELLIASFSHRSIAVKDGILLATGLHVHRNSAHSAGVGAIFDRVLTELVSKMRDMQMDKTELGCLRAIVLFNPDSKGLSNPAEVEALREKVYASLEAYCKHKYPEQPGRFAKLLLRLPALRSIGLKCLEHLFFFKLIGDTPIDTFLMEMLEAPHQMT

First: B1
Second: B2
The binding signal of the first is lower: 10.8 PBM z-score against 500 random probes for the first, 11 PBM z-score against 500 random probes for the second.

Going from B3 to B4, the binding signal falls from 11.1 PBM z-score against 500 random probes to -0.59 PBM z-score against 500 random probes.

Going from B5 to B6, the binding signal rises from -0.34 PBM z-score against 500 random probes to 10.9 PBM z-score against 500 random probes.

With B7 the binding signal was 10.7 PBM z-score against 500 random probes.

Target: THRa:RXRa (Homo sapiens, UniProt P10827;P19793 full;full)
Assay: no ligand; PBM; 90 nM : 90 nM RXRa; PBS pH 7.4, 2% milk, 0.02% Triton X-100, 1 mM DTT, BSA, 0.4 mg/ml salmon testes DNA
Conditions: tags: His kept;His cleaved; copies: 1;1; label: surface-attached array probe

THRa:RXRa, sequence (P10827 other isoform, or with tags, fused parts or gaps, chain 1 of 2): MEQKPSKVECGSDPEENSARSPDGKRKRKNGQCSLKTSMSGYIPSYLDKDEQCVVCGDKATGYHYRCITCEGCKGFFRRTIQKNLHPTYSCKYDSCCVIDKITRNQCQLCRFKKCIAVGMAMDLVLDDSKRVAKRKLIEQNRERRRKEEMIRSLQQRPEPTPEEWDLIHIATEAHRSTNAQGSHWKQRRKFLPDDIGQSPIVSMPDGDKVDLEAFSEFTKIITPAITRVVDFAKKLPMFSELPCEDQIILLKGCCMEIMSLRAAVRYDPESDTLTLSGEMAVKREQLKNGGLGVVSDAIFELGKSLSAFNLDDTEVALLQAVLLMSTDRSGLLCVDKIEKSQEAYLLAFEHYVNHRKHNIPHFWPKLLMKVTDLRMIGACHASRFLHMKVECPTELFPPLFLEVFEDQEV
THRa:RXRa, sequence (P19793 whole entry, chain 2 of 2): as the sequence (P19793 whole entry) above

First: B1
Second: B2
The binding signal of the first is lower: 4.82 PBM z-score against 500 random probes for the first, 5.33 PBM z-score against 500 random probes for the second.

First: B3
Second: B4
The binding signal of the first is higher: 5.12 PBM z-score against 500 random probes for the first, -0.86 PBM z-score against 500 random probes for the second.

First: B8
Second: B5
The binding signal of the first is higher: 4.93 PBM z-score against 500 random probes for the first, -0.48 PBM z-score against 500 random probes for the second.

B6 and B7 are the same in binding signal: 4.83 PBM z-score against 500 random probes for the first, 4.83 PBM z-score against 500 random probes for the second.

In the case of B9, the binding signal is reported as -0.66 PBM z-score against 500 random probes.

Target: PPARg:RXRa (Homo sapiens, UniProt P37231;P19793 full;full)
Assay: no ligand; PBM; 180 nM : 90 nM RXRa; PBS pH 7.4, 2% milk, 0.02% Triton X-100, 1 mM DTT, BSA, 0.4 mg/ml salmon testes DNA
Conditions: tags: His kept;His cleaved; copies: 1;1; label: surface-attached array probe

Going from B1 to B2, the binding signal falls from 13.1 PBM z-score against 500 random probes to 11.8 PBM z-score against 500 random probes.

First: B3
Second: B4
The binding signal of the first is higher: 12.1 PBM z-score against 500 random probes for the first, 0.07 PBM z-score against 500 random probes for the second.

First: B8
Second: B5
The binding signal of the first is higher: 9.93 PBM z-score against 500 random probes for the first, -0.61 PBM z-score against 500 random probes for the second.

Going from B6 to B7, the binding signal rises from 11.6 PBM z-score against 500 random probes to 12.3 PBM z-score against 500 random probes.

With B9 the binding signal was 0.2 PBM z-score against 500 random probes.

Target: RARb:RXRa (Homo sapiens, UniProt P10826;P19793 full;full)
Assay: no ligand; PBM; 270 nM : 90 nM RXRa; PBS pH 7.4, 2% milk, 0.02% Triton X-100, 1 mM DTT, BSA, 0.4 mg/ml salmon testes DNA
Conditions: tags: His kept;His cleaved; copies: 1;1; label: surface-attached array probe
Summary of the method: (§1)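 Custom Agilent 4×180K protein-binding microarrays carried double-stranded probes. Their 34-nt variable regions held direct-repeat seeds, single-nucleotide variants, half-site ablations and random human genomic background sequences. Arrays were incubated 1 h with ligand-free nuclear receptor dimers in PBS pH 7.4, 2% milk, 0.02% Triton X-100, 1 mM DTT, 0.2 mg/mL BSA and 0.4 mg/ml salmon testes DNA. Antibodies against each partner (one per run) detected binding, and scanned fluorescence was regression-normalized. Binding z-scores use random background probes as reference.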

RARb:RXRa, sequence (P10826 whole entry, chain 1 of 2): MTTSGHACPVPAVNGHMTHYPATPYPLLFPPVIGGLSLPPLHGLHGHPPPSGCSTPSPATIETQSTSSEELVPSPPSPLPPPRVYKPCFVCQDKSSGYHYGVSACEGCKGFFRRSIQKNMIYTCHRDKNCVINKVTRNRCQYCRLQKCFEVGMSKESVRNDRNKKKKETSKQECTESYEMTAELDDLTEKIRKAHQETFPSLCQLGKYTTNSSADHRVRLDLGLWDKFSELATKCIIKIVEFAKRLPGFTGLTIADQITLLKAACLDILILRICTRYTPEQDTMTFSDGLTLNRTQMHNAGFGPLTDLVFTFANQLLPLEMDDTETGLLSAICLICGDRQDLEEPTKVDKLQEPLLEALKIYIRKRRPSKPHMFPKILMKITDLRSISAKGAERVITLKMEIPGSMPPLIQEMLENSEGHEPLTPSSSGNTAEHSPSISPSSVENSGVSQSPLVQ
RARb:RXRa, sequence (P19793 whole entry, chain 2 of 2): as the sequence (P19793 whole entry) above

Compared with B1, B2 is higher in binding signal: 5.71 PBM z-score against 500 random probes for the first, 6.42 PBM z-score against 500 random probes for the second.

Compared with B8, B6 is higher in binding signal: 5.43 PBM z-score against 500 random probes for the first, 5.85 PBM z-score against 500 random probes for the second.

In the case of B7, the binding signal is reported as 5.62 PBM z-score against 500 random probes.

Target: VDR:RXRa (Homo sapiens, UniProt P11473;P19793 full;full)
Assay: as above
Conditions: tags: His kept;His cleaved; copies: 1;1; label: surface-attached array probe
Summary of the method: as §1

VDR:RXRa, sequence (P11473 whole entry, chain 1 of 2): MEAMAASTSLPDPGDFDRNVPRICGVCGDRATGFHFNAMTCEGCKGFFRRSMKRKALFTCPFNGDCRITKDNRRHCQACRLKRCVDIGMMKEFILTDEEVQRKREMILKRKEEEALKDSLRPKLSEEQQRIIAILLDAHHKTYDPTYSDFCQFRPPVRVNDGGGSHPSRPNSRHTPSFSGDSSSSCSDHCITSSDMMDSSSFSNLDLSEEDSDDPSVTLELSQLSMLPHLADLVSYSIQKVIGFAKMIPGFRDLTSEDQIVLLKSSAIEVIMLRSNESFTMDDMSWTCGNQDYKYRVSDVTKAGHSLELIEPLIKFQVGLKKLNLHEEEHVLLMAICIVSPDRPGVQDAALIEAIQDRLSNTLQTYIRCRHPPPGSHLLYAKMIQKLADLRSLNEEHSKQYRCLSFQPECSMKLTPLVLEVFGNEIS
VDR:RXRa, sequence (P19793 whole entry, chain 2 of 2): as the sequence (P19793 whole entry) above

Compared with B1, B2 is higher in binding signal: 7.18 PBM z-score against 500 random probes for the first, 7.65 PBM z-score against 500 random probes for the second.

Compared with B3, B8 is higher in binding signal: 7.41 PBM z-score against 500 random probes for the first, 7.91 PBM z-score against 500 random probes for the second.

Going from B6 to B7, the binding signal rises from 7.02 PBM z-score against 500 random probes to 7.15 PBM z-score against 500 random probes.

Target: LXRa:RXRa (Homo sapiens, UniProt Q13133;P19793 full;full)
Assay: as above
Conditions: tags: His kept;His cleaved; copies: 1;1; label: surface-attached array probe
Summary of the method: as §1

LXRa:RXRa, sequence (Q13133 whole entry, chain 1 of 2): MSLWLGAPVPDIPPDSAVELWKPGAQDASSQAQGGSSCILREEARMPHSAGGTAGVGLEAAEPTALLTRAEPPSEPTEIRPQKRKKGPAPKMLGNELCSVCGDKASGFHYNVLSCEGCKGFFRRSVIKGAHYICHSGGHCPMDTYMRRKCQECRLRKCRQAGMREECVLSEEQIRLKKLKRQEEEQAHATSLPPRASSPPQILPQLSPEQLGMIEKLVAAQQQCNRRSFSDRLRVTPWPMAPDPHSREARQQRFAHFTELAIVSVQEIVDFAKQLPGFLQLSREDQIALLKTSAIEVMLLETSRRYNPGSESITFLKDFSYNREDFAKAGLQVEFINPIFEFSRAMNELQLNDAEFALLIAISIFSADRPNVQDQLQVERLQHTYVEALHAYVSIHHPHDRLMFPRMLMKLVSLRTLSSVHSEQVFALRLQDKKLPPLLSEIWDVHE
LXRa:RXRa, sequence (P19793 whole entry, chain 2 of 2): as the sequence (P19793 whole entry) above

Going from B1 to B2, the binding signal rises from 7.26 PBM z-score against 500 random probes to 8.34 PBM z-score against 500 random probes.

Going from B3 to B6, the binding signal falls from 7.79 PBM z-score against 500 random probes to 7.5 PBM z-score against 500 random probes.

First: B7
Second: B9
The binding signal of the first is higher: 7.52 PBM z-score against 500 random probes for the first, -0.84 PBM z-score against 500 random probes for the second.

Target: PPARa:RXRa (Homo sapiens, UniProt Q07869;P19793 full;full)
Assay: as above
Conditions: tags: GST kept;His cleaved; copies: 1;1; label: surface-attached array probe
Summary of the method: as §1

Going from B1 to B2, the binding signal rises from 7.49 PBM z-score against 500 random probes to 7.56 PBM z-score against 500 random probes.

First: B5
Second: B6
The binding signal of the first is lower: 0.1 PBM z-score against 500 random probes for the first, 7.2 PBM z-score against 500 random probes for the second.

First: B7
Second: B9
The binding signal of the first is higher: 7.46 PBM z-score against 500 random probes for the first, -0.63 PBM z-score against 500 random probes for the second.

Target: LXRb:RXRa (Homo sapiens, UniProt P55055;P19793 full;full)
Assay: as above
Conditions: tags: His kept;His cleaved; copies: 1;1; label: surface-attached array probe
Summary of the method: as §1

LXRb:RXRa, sequence (P55055 whole entry, chain 1 of 2): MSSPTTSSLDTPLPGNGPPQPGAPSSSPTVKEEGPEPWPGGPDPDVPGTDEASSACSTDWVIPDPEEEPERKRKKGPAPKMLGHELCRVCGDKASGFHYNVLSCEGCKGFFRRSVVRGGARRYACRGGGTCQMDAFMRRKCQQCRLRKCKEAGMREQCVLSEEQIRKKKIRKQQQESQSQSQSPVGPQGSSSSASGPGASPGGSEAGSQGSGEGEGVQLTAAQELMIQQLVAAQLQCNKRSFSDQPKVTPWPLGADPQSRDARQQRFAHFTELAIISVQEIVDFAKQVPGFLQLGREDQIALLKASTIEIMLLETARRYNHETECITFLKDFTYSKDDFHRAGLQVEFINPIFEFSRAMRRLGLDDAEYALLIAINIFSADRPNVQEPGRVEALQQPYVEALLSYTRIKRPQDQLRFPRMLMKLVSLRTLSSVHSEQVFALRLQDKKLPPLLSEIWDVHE
LXRb:RXRa, sequence (P19793 whole entry, chain 2 of 2): as the sequence (P19793 whole entry) above

Compared with B1, B2 is higher in binding signal: 7.5 PBM z-score against 500 random probes for the first, 7.9 PBM z-score against 500 random probes for the second.

Going from B3 to B6, the binding signal falls from 7.46 PBM z-score against 500 random probes to 6.9 PBM z-score against 500 random probes.

With B7 the binding signal was 7.29 PBM z-score against 500 random probes.

Target: FXR:RXRa (Homo sapiens, UniProt Q96RI1;P19793 full;full)
Assay: as above
Conditions: tags: His kept;His cleaved; copies: 1;1; label: surface-attached array probe
Summary of the method: as §1

First: B1
Second: B2
The binding signal of the first is lower: 8.57 PBM z-score against 500 random probes for the first, 9.44 PBM z-score against 500 random probes for the second.

Going from B3 to B6, the binding signal falls from 8.93 PBM z-score against 500 random probes to 8.54 PBM z-score against 500 random probes.

For B7, the binding signal was 8.5 PBM z-score against 500 random probes.

Target: PXR:RXRa (Homo sapiens, UniProt O75469;P19793 full;full)
Assay: as above
Conditions: tags: His kept;His cleaved; copies: 1;1; label: surface-attached array probe
Summary of the method: as §1

First: B1
Second: B2
The binding signal of the first is lower: 7.5 PBM z-score against 500 random probes for the first, 8.16 PBM z-score against 500 random probes for the second.

Going from B3 to B4, the binding signal falls from 7.7 PBM z-score against 500 random probes to -0.93 PBM z-score against 500 random probes.

Compared with B8, B6 is higher in binding signal: 6.39 PBM z-score against 500 random probes for the first, 7.52 PBM z-score against 500 random probes for the second.

B7 was tested, and the binding signal was 7.29 PBM z-score against 500 random probes.

Target: RARa:RXRa (Homo sapiens, UniProt P10276;P19793 full;full)
Assay: as above
Conditions: tags: His kept;His cleaved; copies: 1;1; label: surface-attached array probe
Summary of the method: as §1

Compared with B1, B2 is higher in binding signal: 9.33 PBM z-score against 500 random probes for the first, 9.47 PBM z-score against 500 random probes for the second.

Compared with B3, B4 is lower in binding signal: 9.26 PBM z-score against 500 random probes for the first, -0.76 PBM z-score against 500 random probes for the second.

Going from B8 to B5, the binding signal falls from 7.07 PBM z-score against 500 random probes to -0.62 PBM z-score against 500 random probes.

Going from B6 to B7, the binding signal falls from 9.37 PBM z-score against 500 random probes to 9.11 PBM z-score against 500 random probes.

For B9, the binding signal was -0.34 PBM z-score against 500 random probes.

Target: RARg:RXRa (Homo sapiens, UniProt P13631;P19793 full;full)
Assay: as above
Conditions: tags: His kept;His cleaved; copies: 1;1; label: surface-attached array probe
Summary of the method: as §1

First: B1
Second: B2
The binding signal of the first is lower: 9.01 PBM z-score against 500 random probes for the first, 9.56 PBM z-score against 500 random probes for the second.

First: B3
Second: B6
The binding signal of the first is higher: 9.4 PBM z-score against 500 random probes for the first, 9.09 PBM z-score against 500 random probes for the second.

For B7, the binding signal was 8.67 PBM z-score against 500 random probes.
